Laboratory results taken from US20180369322A1.

Tests used:
monkey plasma proteins = test: equilibrium dialysis, drug at 10 and 100 µM, monkey plasma
human plasma proteins = test: equilibrium dialysis, drug at 10 and 100 µM, human plasma
rat plasma proteins = test: equilibrium dialysis, drug at 10 and 100 µM, rat plasma

in vitro plasma protein binding (monkey plasma proteins): > 99.9%
in vitro plasma protein binding (human plasma proteins): > 99.9%
in vitro plasma protein binding (rat plasma proteins): > 99.9%
Substance: R5000 (peptide)
